The binders below were run against DLG1_2, Q12959 (assay: holdup assay). Conditions: plain residues with an end cap or a label only (N-terminal biotin on a linker: ado-ado).
Parameters: key: below the threshold = too weak to quantify, mostly under pKd 3.1 to 4

| Binder | pKd |
| --- | --- |
| NVYGTESVKI [GRIA3, P42263] | below the threshold |
| SRPRPDDLEI [GJA1, P17302] | below the threshold |

Each binder was assayed against NHERF4_2, Q86UT5 (assay: holdup assay). Conditions: plain residues with an end cap or a label only (N-terminal biotin on a linker: ado-ado).
Parameters: key: below the threshold = too weak to quantify, mostly under pKd 3.1 to 4

NHERF4_2, Q86UT5, sequence (Q86UT5 220-308): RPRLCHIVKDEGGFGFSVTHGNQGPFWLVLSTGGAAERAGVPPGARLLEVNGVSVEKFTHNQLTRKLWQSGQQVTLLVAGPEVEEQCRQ

| Binder | pKd |
| --- | --- |
| NVYGTESVKI [GRIA3, P42263] | below the threshold |
| SRPRPDDLEI [GJA1, P17302] | below the threshold |

The binders below were run against T1, PDZD7_3, Q9H5P4 (assay: holdup assay). Conditions: plain residues with an end cap or a label only (N-terminal biotin on a linker: ado-ado).
T1 sequence (Q9H5P4 857-944, limits assumed, looked up): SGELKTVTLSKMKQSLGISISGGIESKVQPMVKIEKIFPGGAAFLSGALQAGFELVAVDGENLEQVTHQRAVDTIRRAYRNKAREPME
Parameters: key: below the threshold = too weak to quantify, mostly under pKd 3.1 to 4

| Binder | pKd |
| --- | --- |
| NVYGTESVKI [GRIA3, P42263] | below the threshold |
| SRPRPDDLEI [GJA1, P17302] | below the threshold |

What follows are binders tested against GIPC2, Q8TF65 (assay: holdup assay). Conditions: plain residues with an end cap or a label only (N-terminal biotin on a linker: ado-ado).
Parameters: key: below the threshold = too weak to quantify, mostly under pKd 3.1 to 4

GIPC2, Q8TF65, sequence (Q8TF65 112-203): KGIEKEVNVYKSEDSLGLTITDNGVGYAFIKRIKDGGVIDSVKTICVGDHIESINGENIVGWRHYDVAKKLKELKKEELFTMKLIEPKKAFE

| Binder | pKd |
| --- | --- |
| NVYGTESVKI [GRIA3, P42263] | below the threshold |
| SRPRPDDLEI [GJA1, P17302] | below the threshold |

Each binder was assayed against T2, DFNB31_1, Q9P202 (assay: holdup assay). Conditions: plain residues with an end cap or a label only (N-terminal biotin on a linker: ado-ado).
T2 sequence (Q9P202 135-233, limits assumed, looked up): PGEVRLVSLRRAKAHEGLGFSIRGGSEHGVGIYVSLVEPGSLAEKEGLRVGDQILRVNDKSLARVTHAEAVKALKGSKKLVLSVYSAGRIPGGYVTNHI
Parameters: key: below the threshold = too weak to quantify, mostly under pKd 3.1 to 4

| Binder | pKd |
| --- | --- |
| NVYGTESVKI [GRIA3, P42263] | below the threshold |
| SRPRPDDLEI [GJA1, P17302] | below the threshold |

These binders were tested against T3, APBA2_1, Q99767 (assay: holdup assay). Conditions: plain residues with an end cap or a label only (N-terminal biotin on a linker: ado-ado).
T3 sequence (Q99767 563-664, limits assumed, looked up): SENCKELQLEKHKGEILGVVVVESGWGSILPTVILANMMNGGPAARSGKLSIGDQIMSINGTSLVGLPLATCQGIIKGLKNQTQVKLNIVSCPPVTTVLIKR
Parameters: key: below the threshold = too weak to quantify, mostly under pKd 3.1 to 4

| Binder | pKd |
| --- | --- |
| NVYGTESVKI [GRIA3, P42263] | below the threshold |
| SRPRPDDLEI [GJA1, P17302] | below the threshold |

Each binder was assayed against T4, NHERF3_1, Q5T2W1 (assay: holdup assay). Conditions: plain residues with an end cap or a label only (N-terminal biotin on a linker: ado-ado).
T4 sequence (Q5T2W1 4-100, limits assumed, looked up): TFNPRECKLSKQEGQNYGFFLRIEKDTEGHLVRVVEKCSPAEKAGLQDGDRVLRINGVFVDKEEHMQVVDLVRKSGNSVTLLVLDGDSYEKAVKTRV
Parameters: key: below the threshold = too weak to quantify, mostly under pKd 3.1 to 4

| Binder | pKd |
| --- | --- |
| NVYGTESVKI [GRIA3, P42263] | below the threshold |
| SRPRPDDLEI [GJA1, P17302] | below the threshold |

What follows are binders tested against T5, LNX2_3, Q8N448 (assay: holdup assay). Conditions: plain residues with an end cap or a label only (N-terminal biotin on a linker: ado-ado).
T5 sequence (Q8N448 463-564, limits assumed, looked up): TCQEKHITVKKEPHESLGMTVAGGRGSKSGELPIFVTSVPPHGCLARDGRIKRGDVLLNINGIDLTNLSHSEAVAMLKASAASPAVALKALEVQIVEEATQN
Parameters: key: below the threshold = too weak to quantify, mostly under pKd 3.1 to 4

| Binder | pKd |
| --- | --- |
| NVYGTESVKI [GRIA3, P42263] | below the threshold |
| SRPRPDDLEI [GJA1, P17302] | below the threshold |

The binders below were run against T6, HTRA4, P83105 (assay: holdup assay). Conditions: plain residues with an end cap or a label only (N-terminal biotin on a linker: ado-ado).
T6 sequence (P83105 378-476, limits assumed, looked up): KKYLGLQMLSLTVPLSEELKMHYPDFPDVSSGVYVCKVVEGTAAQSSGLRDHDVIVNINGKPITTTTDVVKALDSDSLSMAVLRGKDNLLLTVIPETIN
Parameters: key: below the threshold = too weak to quantify, mostly under pKd 3.1 to 4

| Binder | pKd |
| --- | --- |
| NVYGTESVKI [GRIA3, P42263] | 4 |
| SRPRPDDLEI [GJA1, P17302] | below the threshold |

These binders were tested against T7, TIAM2, Q8IVF5 (assay: holdup assay). Conditions: plain residues with an end cap or a label only (N-terminal biotin on a linker: ado-ado).
T7 sequence (Q8IVF5 885-986, limits assumed, looked up): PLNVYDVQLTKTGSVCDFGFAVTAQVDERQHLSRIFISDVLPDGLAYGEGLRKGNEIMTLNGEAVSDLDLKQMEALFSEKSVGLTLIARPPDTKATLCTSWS
Parameters: key: below the threshold = too weak to quantify, mostly under pKd 3.1 to 4

| Binder | pKd |
| --- | --- |
| NVYGTESVKI [GRIA3, P42263] | below the threshold |
| SRPRPDDLEI [GJA1, P17302] | below the threshold |

These binders were tested against MAGI2_6, Q86UL8 (assay: holdup assay). Conditions: plain residues with an end cap or a label only (N-terminal biotin on a linker: ado-ado).
Parameters: key: below the threshold = too weak to quantify, mostly under pKd 3.1 to 4

MAGI2_6, Q86UL8, sequence (Q86UL8 1141-1229): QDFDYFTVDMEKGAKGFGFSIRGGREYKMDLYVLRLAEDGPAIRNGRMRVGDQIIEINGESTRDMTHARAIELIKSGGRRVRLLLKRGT

| Binder | pKd |
| --- | --- |
| NVYGTESVKI [GRIA3, P42263] | below the threshold |
| SRPRPDDLEI [GJA1, P17302] | below the threshold |

These binders were tested against T8, SIPA1L2, Q9P2F8 (assay: holdup assay). Conditions: plain residues with an end cap or a label only (N-terminal biotin on a linker: ado-ado).
T8 sequence (Q9P2F8 945-1036, limits assumed, looked up): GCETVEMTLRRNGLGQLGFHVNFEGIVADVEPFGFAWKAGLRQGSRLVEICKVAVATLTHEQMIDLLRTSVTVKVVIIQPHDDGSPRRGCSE
Parameters: key: below the threshold = too weak to quantify, mostly under pKd 3.1 to 4

| Binder | pKd |
| --- | --- |
| NVYGTESVKI [GRIA3, P42263] | below the threshold |
| SRPRPDDLEI [GJA1, P17302] | below the threshold |

Each binder was assayed against T9, GRIP1_5, Q9Y3R0 (assay: holdup assay). Conditions: plain residues with an end cap or a label only (N-terminal biotin on a linker: ado-ado).
T9 sequence (Q9Y3R0 568-668, limits assumed, looked up): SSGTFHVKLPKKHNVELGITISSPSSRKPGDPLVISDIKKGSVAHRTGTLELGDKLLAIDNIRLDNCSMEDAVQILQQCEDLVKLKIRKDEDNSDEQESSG
Parameters: key: below the threshold = too weak to quantify, mostly under pKd 3.1 to 4

| Binder | pKd |
| --- | --- |
| NVYGTESVKI [GRIA3, P42263] | below the threshold |
| SRPRPDDLEI [GJA1, P17302] | below the threshold |

Each binder was assayed against T10, DFNB31_2, Q9P202 (assay: holdup assay). Conditions: plain residues with an end cap or a label only (N-terminal biotin on a linker: ado-ado).
T10 sequence (Q9P202 274-371, limits assumed, looked up): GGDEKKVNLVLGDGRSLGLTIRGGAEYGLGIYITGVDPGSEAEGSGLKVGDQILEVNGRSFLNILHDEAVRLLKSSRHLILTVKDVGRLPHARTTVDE
Parameters: key: below the threshold = too weak to quantify, mostly under pKd 3.1 to 4

| Binder | pKd |
| --- | --- |
| NVYGTESVKI [GRIA3, P42263] | below the threshold |
| SRPRPDDLEI [GJA1, P17302] | below the threshold |

Each binder was assayed against NHERF2_2, Q15599 (assay: holdup assay). Conditions: plain residues with an end cap or a label only (N-terminal biotin on a linker: ado-ado).
Parameters: key: below the threshold = too weak to quantify, mostly under pKd 3.1 to 4

NHERF2_2, Q15599, sequence (Q15599 142-238): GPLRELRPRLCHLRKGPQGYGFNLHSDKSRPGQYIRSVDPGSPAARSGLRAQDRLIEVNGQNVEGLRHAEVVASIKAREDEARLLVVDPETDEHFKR

| Binder | pKd |
| --- | --- |
| NVYGTESVKI [GRIA3, P42263] | 3.47 |
| SRPRPDDLEI [GJA1, P17302] | below the threshold |

These binders were tested against SCRIB_1, Q14160 (assay: holdup assay). Conditions: plain residues with an end cap or a label only (N-terminal biotin on a linker: ado-ado).
Parameters: key: below the threshold = too weak to quantify, mostly under pKd 3.1 to 4

SCRIB_1, Q14160, sequence (Q14160 718-814): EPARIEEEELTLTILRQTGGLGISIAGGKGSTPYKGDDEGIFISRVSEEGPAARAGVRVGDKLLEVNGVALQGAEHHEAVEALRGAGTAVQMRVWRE

| Binder | pKd |
| --- | --- |
| NVYGTESVKI [GRIA3, P42263] | below the threshold |
| SRPRPDDLEI [GJA1, P17302] | below the threshold |

These binders were tested against DLG1_3, Q12959 (assay: holdup assay). Conditions: plain residues with an end cap or a label only (N-terminal biotin on a linker: ado-ado).
Parameters: key: below the threshold = too weak to quantify, mostly under pKd 3.1 to 4

| Binder | pKd |
| --- | --- |
| NVYGTESVKI [GRIA3, P42263] | below the threshold |
| SRPRPDDLEI [GJA1, P17302] | below the threshold |

These binders were tested against T11, TJP3_3, O95049 (assay: holdup assay). Conditions: plain residues with an end cap or a label only (N-terminal biotin on a linker: ado-ado).
T11 sequence (O95049 375-456, limits assumed, looked up): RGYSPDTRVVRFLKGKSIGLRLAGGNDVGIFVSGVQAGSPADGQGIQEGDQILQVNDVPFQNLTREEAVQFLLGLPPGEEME
Parameters: key: below the threshold = too weak to quantify, mostly under pKd 3.1 to 4

| Binder | pKd |
| --- | --- |
| NVYGTESVKI [GRIA3, P42263] | below the threshold |
| SRPRPDDLEI [GJA1, P17302] | below the threshold |

The binders below were run against Inadl_3, Q8NI35 (assay: holdup assay). Conditions: plain residues with an end cap or a label only (N-terminal biotin on a linker: ado-ado).
Parameters: key: below the threshold = too weak to quantify, mostly under pKd 3.1 to 4

Inadl_3, Q8NI35, sequence (Q8NI35 359-469): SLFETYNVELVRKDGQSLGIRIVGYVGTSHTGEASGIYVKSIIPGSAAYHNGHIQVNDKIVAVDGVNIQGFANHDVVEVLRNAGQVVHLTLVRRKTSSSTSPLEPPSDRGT

| Binder | pKd |
| --- | --- |
| NVYGTESVKI [GRIA3, P42263] | below the threshold |
| SRPRPDDLEI [GJA1, P17302] | 3.47 |

Each binder was assayed against GRIP2_6, Q9C0E4 (assay: holdup assay). Conditions: plain residues with an end cap or a label only (N-terminal biotin on a linker: ado-ado).
Parameters: key: below the threshold = too weak to quantify, mostly under pKd 3.1 to 4

GRIP2_6, Q9C0E4, sequence (Q9C0E4 648-740): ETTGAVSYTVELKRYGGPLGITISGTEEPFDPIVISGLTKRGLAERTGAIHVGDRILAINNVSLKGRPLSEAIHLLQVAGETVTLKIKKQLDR

| Binder | pKd |
| --- | --- |
| NVYGTESVKI [GRIA3, P42263] | below the threshold |
| SRPRPDDLEI [GJA1, P17302] | below the threshold |

These binders were tested against CASK, O14936 (assay: holdup assay). Conditions: plain residues with an end cap or a label only (N-terminal biotin on a linker: ado-ado).
Parameters: key: below the threshold = too weak to quantify, mostly under pKd 3.1 to 4

CASK, O14936, sequence (O14936 487-570): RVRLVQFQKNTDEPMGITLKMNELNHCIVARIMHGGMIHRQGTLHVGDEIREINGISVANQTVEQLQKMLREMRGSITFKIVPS

| Binder | pKd |
| --- | --- |
| NVYGTESVKI [GRIA3, P42263] | below the threshold |
| SRPRPDDLEI [GJA1, P17302] | below the threshold |

Each binder was assayed against T12, LRRC7, Q96NW7 (assay: holdup assay). Conditions: plain residues with an end cap or a label only (N-terminal biotin on a linker: ado-ado).
T12 sequence (Q96NW7 1440-1537, limits assumed, looked up): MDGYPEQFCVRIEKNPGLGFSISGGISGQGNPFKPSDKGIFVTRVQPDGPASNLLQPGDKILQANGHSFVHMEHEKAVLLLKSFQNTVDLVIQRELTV
Parameters: key: below the threshold = too weak to quantify, mostly under pKd 3.1 to 4

| Binder | pKd |
| --- | --- |
| NVYGTESVKI [GRIA3, P42263] | below the threshold |
| SRPRPDDLEI [GJA1, P17302] | below the threshold |

Each binder was assayed against DLG1_1, Q12959 (assay: holdup assay). Conditions: plain residues with an end cap or a label only (N-terminal biotin on a linker: ado-ado).
Parameters: key: below the threshold = too weak to quantify, mostly under pKd 3.1 to 4

| Binder | pKd |
| --- | --- |
| NVYGTESVKI [GRIA3, P42263] | below the threshold |
| SRPRPDDLEI [GJA1, P17302] | below the threshold |

These binders were tested against T13, APBA1_2, Q02410 (assay: holdup assay). Conditions: plain residues with an end cap or a label only (N-terminal biotin on a linker: ado-ado).
T13 sequence (Q02410 742-832, limits assumed, looked up): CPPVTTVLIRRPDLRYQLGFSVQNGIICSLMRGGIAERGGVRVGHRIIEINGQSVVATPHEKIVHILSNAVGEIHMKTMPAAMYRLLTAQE
Parameters: key: below the threshold = too weak to quantify, mostly under pKd 3.1 to 4

| Binder | pKd |
| --- | --- |
| NVYGTESVKI [GRIA3, P42263] | below the threshold |
| SRPRPDDLEI [GJA1, P17302] | below the threshold |

These binders were tested against MAST1, Q9Y2H9 (assay: holdup assay). Conditions: plain residues with an end cap or a label only (N-terminal biotin on a linker: ado-ado).
Parameters: key: below the threshold = too weak to quantify, mostly under pKd 3.1 to 4

MAST1, Q9Y2H9, sequence (Q9Y2H9 962-1065): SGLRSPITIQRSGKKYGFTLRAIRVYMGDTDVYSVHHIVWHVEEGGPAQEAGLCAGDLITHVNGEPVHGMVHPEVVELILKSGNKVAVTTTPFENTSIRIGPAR

| Binder | pKd |
| --- | --- |
| NVYGTESVKI [GRIA3, P42263] | 3.93 |
| SRPRPDDLEI [GJA1, P17302] | below the threshold |

Source: article PMC9482650, “Quantitative fragmentomics allow affinity mapping of interactomes” (Nature Communications, 2022)
